Assay: soluble fraction after stress (log2 fold change); higher = more stays soluble; pooled small domains, quantitative proteomics
Conditions: stress: 50 degC
Outline: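 Pooled custom libraries of small protein domains were each held under stress at 50°C. The read-out, high-throughput quantitative proteomics, tracked how much of each protein stayed soluble. This is reported as a base-two log fold change used to indicate aggregation propensity. Higher values mean more protein remains in solution.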

Sequence	soluble fraction (log2)
HMLRDTTLLHIDSIVRDGSTAMANITVRDEGTDLEFPLQLRMERGDMGWQVVRIVNYRAYLEAVQKA	-0.336
HMKELASKYEISEYMKFLIENLDKSNFFYPIEKRESMINNIFSIYSKADLSKKELNMLWGMLKKLR	-2.1
HMAPSPEGAAILRESVESVARDQVDRVALTMTARGYTTAEIAAALMVDRSTISRRLYAMRDRYHAQQDNAQ	-0.37
HMPQIDLYPFEVRIEQDNNAAEYAVRFLDVPNIIGSGASIDEAIVEARGNLKEYLDYLIDTNRDIPLPS	-0.412
HMNVDSLVGSEARVTAEIDNRKETGTAMVNGQEWTARAESDEEIYPVGTIVEIRKIQGVKLIVSTH	-0.162
HMLGERIRTLRKEIGMSVTELARRVKTSPSHISEIERGEKMPSLNLLVKIAKELKTSIDYLTGLVG	-0.0679
HMGVDIAEHDGQPAVSIRKGAAESVAQWVKDQGGTFPQEVEMTVQNVARAGGTPLVVARGRDVLGVIYLKD	0.0501
HMGVKTDKYYYQMATETRVNKHYGLSNQYIATLISEYPRSPLIPNASILSKKNNADLALIDQSINQR	-0.397
HMNHNPSIARKISREIKRGAPPESLLNLARTVNDSYYRSLSFVSIAYSIKGKKSKELFEEAISNLT	-0.161
HMTHANAALTPRHRLKVARLVVDEGWPVSEVAARFQVSWPTVKRWADRYRAGQSMQDRSSRP	-1.13
HMTAQLAAQERTHALDMFMGGYKFSSKPAENGVRAEFEKKNFTLEDGKFLGGDEFMKSLMENDDYKGAFV	0.375
HMLADRANMAPAALRQIMTAIDGGNVTPKQIESATGMAHATVARALRKMLDDGLIANDGKGRYTVLT	-0.0609
HMKEEDLPREYTDILGNSVHERLNIMIHDIIEHSQDKPEVAMSPEREEAMHGLRRWMFDHVYH	-0.202
HMESVTETFLTNLINRYIADKAGYIISYPSEYRIEVLYHGGQVLDYENLRKSINTYIPAHIGYKLVTI	-0.112
HMDQESFGYFHVKYADVKQVADLVQKLNIPAVTWADERTRRLVALGSPATLQRISQVLNMVDL	-0.721
HMKQISNTDELEAMIQKIIEDNSQQVEKFRSGNEKLFGWFVGQVMKNTQGAANPKVVNEILKKSLK	0.177
HMPSSQQVMRRLATVGPDKTLEELQRQHDAHLRKYGEFNDFRGERQQMRQEMERIKEAKQGTGPYAHLMG	0.0233
HMPVSVAEQKQILAEALQERGHATFRELIENADNRMIVVGRFLALLELYRDGTVRFEQERALGELTIHWEE	-0.318
HMEGLATRLRFLRQARGLSYHALARLSGVTHTALHQIEAGKNIPGLDTAEKIAMALDVDPRWFAYGRGDPS	-1.31
HMGQLVVHQIKGEASRLDKFLVVNIPKYSRSVWREMINNGSVQVNGRVVKPHLLVKEGDIITWSS	-0.383
HMSDGTVYGSDGVIKVNLPQSGMLRIYATDGTTLVNRWQAAGIDTISMPRGLYIVRFDNQVWKVVV	-0.74
HMHSLLDDIPNVGEKRKRILLTHFQSLEEIKAATVEELERLPQINRKAAESIYTFFHSQPIR	-0.0679
HMYSDDNKSILNLIDNLFNKENIKIDINAKKLLSNYLGVDRLVTKGEIEKAILFAGTKKHLSIEDISAFLS	-0.0337
HMATPIAGTKYTLNNTPVYGTEKGPSIGKRSGIYYTWDATVRNGRIRMTNSPARVGVPWQVSFWVEVNKL	-0.533
HMGGQFVKVEVIAQIFGVTVRRVQQLTQEGVVKTTEIPGEGRRYELVPTIKTYIQYLSDKAY	-4.01
HMDSGLEQAKTAALENAELETSQVTFIKAELDYDDGKKVYEIEFVTSAMKYEYQVKADDFSILEMSKETIE	-0.39

Sequence	soluble fraction (log2)
HMELDFNSVYRQLNHEQKQAYQSIKSVLEQKISGSELDKKLKQAQQAFVAKFKENPNFEVPK	0.31
HMQAKDVEIPNFVGKTLAEANADNKDNFNFVVESKYDASKELGVILEQEPAADSKLVKSGSQITLKV	≥ 0.62
HMNAEQLAQVRRQKIGFIFQDFRLFPEYTVRDNILIPFYLDHRAPDEQMLHKLTGILGIAGKLHSRPAQL	-0.0698
HMSDHYEVLGVDRNATDDQIKKAYRRLARELHPDVNDAPESQEKFKLVTHAYEVLSDPDERRKYDMG	0.0925
HMDGQGIRSITPEYYLSDSATKMPDASSSGWKSVPDDYIDKHYYWVRSKILWDDGTYTTTTPVL	-0.364
HMRERLPFGFAQSKKVVLLSTESDTPKVLSVNWPSLDLYAELKRVIGRAFLLEIVSEEEFQAQVSDAYQRD	-2.24
HMFGNTGETSGTGVAFTRSPVDGENKIFGEFLVNAQGEDVVAGIRTPQPISEMEQAFPEVYSKFESVAEIL	0.0862
HMTYQHQSIIHRRTRGAILTAAKELLAESGISGTNMIEIADRAQVSRASLYNHFRDKHEVFLALVES	-0.677
HMAQVDAVQQVLQAFPALRSGQSQHLSQVVAALRQRGILTVGTKTTAWFAQWASVFQLLPLQVPNRIRYQS	-0.066
HMSSTPEPPQAVLDLVNLREQARAGKDWTQSDAFRQQIAALGWTVKDTKDGPVVSLSPTTTE	0.0968
HMTMNYYDILSIKRDATLEEIQKAYKEKSFQFHPDFNKGISDDSMFRIIKEAYETLSDTEKRNQYDASLNK	0.232
HMSQSYHLADRGQSLGTLDYQAVLVGLATGRLSPDTLSWQEGEAGWVALRQRPEFASGVSAVASL	0.0116
HMTNNDIIRRVRYLFNFSDKQVIELFKLANETVSIEHVSGWLKKEEDPTLIEISDRDLAVFLNGLII	0.237
HMDALPLIQLEKEIKDFISQGQKINAIKHYRNVMDRDFGTTISLKLAKYTVDALAQNIKVDLTKGYDQ	-0.475
HMDMPLIGTAIRGWGIISPAQQETLIKMSILTVEDLAAINDEGIKRIGMGGLDLKNKAKAWLLQLK	-0.751
HMAGLYSLLLVELPMERLPEDLPAIKAAWLKTGDTEAFKVALQAMSSRGWTIAVPGKHRDTQMTQL	0.35
HMNNTIKFSVDENNSGKRLDVYLTENINHLTRSFLKKLIEKEQVKLNKKVLTSPATKVKTKDQITINIIE	0.172
HMGESVQVPSYVGMGFREAARKARARDFGVAVSDSIYVPGKPPGEIIAQDPKAESRVKEGRTIYFTVAK	0.0425
HMALGRTGEVYLPIPAGRAGHGKISITLQGALREVDAVTAGEALPRGTSVRVVDVAGNGVLLVEK	-0.059
HMVINQRKLNLLSIYSSGSEKRAIILFPTGQTKFVKVGDTLDGGRVAAIGTSEIRYLKGGNNLVLRIPG	-2.63
HMRVELVVVPELRQQLLPEARELANSAGLQLRVRGQSPADETRTIVVTQSPAAGTRVAARSIVLVE	-0.539
HMPELSITDADIIVAGGRGMGSAENFGLIRELAGLLGAAVGASRVVVDAEWVDQKHLIGQTGK	-0.112
HMNKLKALREEQGLSMMEIAKQLNMPYTTYVNYEKGTREPNSEMLIKFSKFFNVTIDYLIGNSEQKN	-0.502
HMTGNWRQMHKVKSKETIYGIAKEYGITVDELTKANPGMEAPGYTLKKGDYIFIPYATADANV	0.399
HMAVWRIKVNYIPGYGVNIWSSYKNGHFTGKRAMHGETYEVLETKKDQDGNTWYKLDDHQWIEGRYAINAK	-0.466
HMREPDPELTASIKSMAESNDQSERLVALAQLSEQRAVDPEVADQILLIALLDEDPIIRGQAVYA	0.264

Sequence	soluble fraction (log2)
HMASISDRIRLLRAESHMTQEEFGRIFGISKPTVSFYEHGKSVPNDQIKTAIARYFGVSVDYLLGVTD	-1.89
HMSPSSPNQILGQYPKTKNDIILSSGRYGPYLKYNKKNYSLGNNISVEKLSLEEAVKIIDLKDKK	0.0457
HMRFEWFDTLTDREKEIFGLIATGFDNQQIADRLQLAEQTVRNNISTIYSKLEVKDRFEIIRLANTI	-0.706
HMAAVEDLPVKSVNGKKYHYYTVQPKESLYSLSHKLGISRQEIIKYNPGVEDGLKAYEDLLFPYTPK	0.105
HMEIITIVSDINGKRIDAWLSEKLENYSRSFIQKLIQNENVKVNNNIVKANYKLKNGDAVAVSIPEPV	≥ 0.62
HMGRGSEDEQMRGLAVILAEQKQIMQTLGVENEVVKPEQYINTLKRMAELNGFKDTDQFFSIPQ	0.339
HMITKEDVANKKVNLLFFGNFHKMKLPDFEWGITEMMQDRDYLYGSLTKDLYFLGLVLDRKYKI	0.0334
HMTTMNSADLIKELEKAGWTLRGVKGSHHIYTHPARGGHLSVPHPKKDLGAGLARQLRKQAGL	0.125
HMVSEASELTDTINKIGSLAQALVGANKLSKTDLVGIIKKYHTSANYNSITDIGVAKNILAELEAKN	0.0739
HMKVYIKDISDLSDKLKSLLIENDIDDSNKLFEVEDQVLLEIKGLGSKTIDKIKDIVTEYLKKNN	-0.218
HMKLKHANGNHPLTQQEKQNMIEEAAKHYGDYMTALGFDWKQDPNSSDTPMRVAKAFVNDLAEGVY	0.0454
HMSPFYILDEVEAALDDTNLGRLLEIYEELRENSQLLVITHQKRTMEVGDALYGVTMRGDGVSAVISQRLR	0.303
HMNKNLQLMINEIKKGLASEDIETRKKSVLMLSRIDAPEIIQVLEPLKDDSSEEIRKISSKIISVLSKKYT	0.168
HMETLKEVPNLKGQQQEVAKQLLINAGLGVGKINIIEDSTIADGEVVTQSILPNTKVKKDTYVGFTVNKAP	0.0969
HMQYTTDEVRERVLSVLNQLLLRWIVREGKDMFNIQANAVEISEGIKGELNTELEKIGLAATGFQIDSV	-0.52
HMAVEETFTITWLDRDGTVLEVDENVLKGTMPSFDGHIPPHDGLEFKGWDPEVVPVEGDATYTATYKA	-0.176
HMSPSQFRSKSLLVEINFASRQMDGEILQGDYAGKRLSELTEAEVQELTAWLKQSDRESFVLLQAYLLRSG	-0.881
HMKNETFAITSEDAGKRLDVWLTNILGDYSRSYVERLVEQGNVTVGGKTVKAGYKLKAGDSVQVSIPGPK	0.138
HMSLMHEESLKNIRRFINSLPESLRTAFTLREQDGLSYEEIGVITETPIGTVRSRIFRAREAILEHIKKEL	-2.24
HMPKNEHETKAIGNQTGGRVFLFLNTDNINRDYNMYISKQVKFVREISQEYYGKVAVFEDLYGNLWDLIE	0.149
HMENFIPDDPKRIEIGMSVLHQRFGKGKVMQLEGNLPDMKATVNFEGEGQKQLLLKYARLKIV	-0.232
HMFFFILNKGAKSGGEITHAVLNGSIVSKPAGWDAFHGLVLAKEKLSSEEIQRQMKELGVEMEIVPL	-0.58
HMAISEEEATNLALERVPGASAQDLRIQLEFDDGVQKYEGDIIYDGKEYDFEIDANTGTFLEWSE	-0.151
HMSNLKKRRLEKNLTLDDVGKLVGVSAATISRWESGDIENMRSDKIVKLANALEISPAVILGW	-0.0215
